The target in the test is TWIK-1 (human). In words: cell-based or functional assay.

A value given as a limit tells only on which side of the number the result lay.

This note sets out measurements from patent US20020032322A1.

Take “apamin (from UniProt P01500 28-45) (peptide)”: the inhibition of TWIK-1 K+ currents (voltage clamp, Xenopus oocytes) was < 10 % inhibition.

Take dedrotoxine (peptide): the inhibition of TWIK-1 K+ currents (voltage clamp, Xenopus oocytes) was < 10 % inhibition.

As for “charybdotoxine (from UniProt P13487 23-59) (peptide)”, the inhibition of TWIK-1 K+ currents (voltage clamp, Xenopus oocytes) was < 10 % inhibition.
